Drawing on publication PMC5028032, “Linkage between Fitness of Yeast Cells and Adenylate Kinase Catalysis” (PLoS ONE, 2016), this text covers Km, kcat and kcat/Km for three substances.

A word on the Km: it is the substrate concentration at which the rate is half of its maximum. In general, kcat refers to the number of substrate molecules converted per active site and unit of time at saturation. The kcat/Km is the turnover number divided by the Michaelis constant.

For this data set, the system named is Nc1ncnc2c1ncn2[C@@H]1O[C@H](COP(=O)(O)OP(=O)(O)OP(=O)(O)O)[C@@H](O)[C@H]1O. The data set can be described thus: purified protein. The settings on record: 300 μM AMP constant, 2 mM MgCl2, 80 mM KCl, 100 mM Tris pH 7.5, 20°C.

Turning to Adkeco (Escherichia coli K-12), the Km was found to be 72 ± 8 µM, the turnover number (kcat) is 305 s⁻¹ and the specificity constant (kcat/Km) came out at 4.26e+06 M⁻¹ s⁻¹.

Turning to Adkeco (Escherichia coli K-12; G10V), the Km came out at 411 ± 61 µM, the kcat was 60 s⁻¹ and the kcat/Km was found to be 140000 M⁻¹ s⁻¹.

Turning to Adkeco (Escherichia coli K-12; T163C), the Km worked out at 37 ± 2 µM, the kcat was 143 s⁻¹ and the catalytic efficiency (kcat/Km) is 3.9e+06 M⁻¹ s⁻¹.
